Molecular target: cellular receptor for the apoE peptide (not named), on cells
Experiment: competition binding on cells (250,000 cells per well, 4 C); competitor/tracer biotinylated apoE 133-149, detected with 125I-streptavidin

LRVRLASHLRKLRKRLL [COG133 (apoE 133-149 peptide), unlabeled]
IC50: 4 µM

Source: US20110306550A1
